From publication PMC12060307

Legend:
[1] = biological target: Japanese soil-borne wheat mosaic virus movement protein (MP^JSBWMV), as fusions MP^JSBWMV:RFP and MP^JSBWMV:GFP (Japanese soil-borne wheat mosaic virus); experiment: FRET or BRET; FRET-FLIM (two-photon, time-correlated single-photon counting) in agro-inoculated N. benthamiana epidermal cells, at plasmodesmata; donor MP:GFP, acceptor RFP fusion; FRET efficiency above 5% considered as interaction
[2] = test system: MPJSBWMV:GFP (movement protein, GFP fusion, in leaf extract) (Japanese soil-borne wheat mosaic virus); experiment: MST; conditions: MST in leaf extract: extraction in 2x MST buffer (100 mM Tris-HCl pH 7.5, 300 mM NaCl, 10 mM MgCl2, 0.1% Tween-20, 0.1 mg/mL BSA, 10 mM DTT, protease …)

Substance | % FRET [1] [%] | fluorescence lifetime of the donor MP:GFP [1] [ns] | Kd [2] [nM]
Japanese soil-borne wheat mosaic virus movement protein (MP^JSBWMV), as fusions MP^JSBWMV:RFP and MP^JSBWMV:GFP (natural protein) | 19.1 | 2 | –
RNA1JSBWMV | – | – | 15.4
RNA2JSBWMV | – | – | 4.5
tRNA1JSBWMV (tRNA-like structure of RNA1) | – | – | 16.2
tRNA2JSBWMV (tRNA-like structure of RNA2) | – | – | 28.3
